From patent US20210032352A1 (ANTERA THERAPEUTICS, published 2021)

Key:
[1] = biological target: T1, FZD2 CRD, Fc-tagged (human, UniProt Q14332 24-190); test: kinetic table (called BLI in paragraph 35); quantity name and unit not printed in the table: KD in M follows from FIG. 12A, same values in nM
T1 construct: domain: CRD; Bought; not shown: Fc tag of the purchased fusion

[2] = biological target: T2, FZD1 CRD, Fc-tagged (human, UniProt Q9UP38 70-250); test: as above
T2 construct: domain: CRD; Bought; not shown: Fc tag of the purchased fusion
T2 sequence (Q9UP38 70-250): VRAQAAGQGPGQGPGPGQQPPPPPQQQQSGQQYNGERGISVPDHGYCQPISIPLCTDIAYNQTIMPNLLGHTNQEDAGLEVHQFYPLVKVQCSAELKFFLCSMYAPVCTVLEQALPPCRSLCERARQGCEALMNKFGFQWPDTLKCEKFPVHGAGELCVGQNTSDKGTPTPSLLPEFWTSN

[3] = biological target: T3, FZD7 CRD, Fc-tagged (human, UniProt O75084 33-185); test: as above
[4] = biological target: T4, CD64 (UniProt P12314 16-288); test: BLI end point: IgG1, FLAg or Fab immobilised on the sensor, receptor in solution (300 nM; CD64 50 nM), signal normalised to the isotype control
T4 construct: also called monocyte and macrophage marker CD64
T4 sequence (P12314 16-288 limits assumed): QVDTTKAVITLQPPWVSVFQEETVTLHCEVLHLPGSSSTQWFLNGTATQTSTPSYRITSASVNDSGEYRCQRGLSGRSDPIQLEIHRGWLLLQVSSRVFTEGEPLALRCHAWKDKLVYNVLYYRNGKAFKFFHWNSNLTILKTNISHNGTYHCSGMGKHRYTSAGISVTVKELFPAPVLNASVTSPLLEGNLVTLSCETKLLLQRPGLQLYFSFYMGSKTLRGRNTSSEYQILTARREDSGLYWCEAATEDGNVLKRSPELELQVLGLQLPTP
Method: (§1) Coated sensors were equilibrated in assay buffer (PBS, 1% BSA, 0.05% Tween20) and transferred into Fc receptor solutions. Association was monitored for 600 seconds, the sensors were transferred to assay buffer, and dissociation was monitored for 600 seconds. CD64 and all other Fc receptors were assayed at 50 nM or 300 nM, respectively, at pH 7.4, unless as indicated. Shake speed was 1000 rpm and temperature was 25° C. End-point response values were taken at the end of the association phase and were normalized to isotype controls. […] The association and disassociation times were 600 or 1200 seconds, respectively.

[5] = biological target: T5, C1q (UniProt P02745 23-245; P02746 28-253; P02747 29-245); test: as above
T5 construct: also called complement (C1q); Clq
T5 sequence (P02745 23-245 limits assumed, chain 1 of 3): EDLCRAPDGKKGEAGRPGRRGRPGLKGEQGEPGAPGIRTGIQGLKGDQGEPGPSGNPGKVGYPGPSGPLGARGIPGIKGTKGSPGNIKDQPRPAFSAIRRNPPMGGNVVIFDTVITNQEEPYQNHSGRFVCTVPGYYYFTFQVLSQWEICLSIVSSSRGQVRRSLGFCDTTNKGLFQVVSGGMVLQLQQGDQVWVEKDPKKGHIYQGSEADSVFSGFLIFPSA
T5 sequence (P02746 28-253 limits assumed, chain 2 of 3): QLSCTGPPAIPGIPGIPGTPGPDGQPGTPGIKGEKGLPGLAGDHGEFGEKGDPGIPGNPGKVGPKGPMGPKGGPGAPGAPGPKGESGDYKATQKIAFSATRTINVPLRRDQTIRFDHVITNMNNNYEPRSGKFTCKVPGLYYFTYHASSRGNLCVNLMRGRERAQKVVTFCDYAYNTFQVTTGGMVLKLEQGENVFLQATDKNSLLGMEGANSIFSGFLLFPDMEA
T5 sequence (P02747 29-245 limits assumed, chain 3 of 3): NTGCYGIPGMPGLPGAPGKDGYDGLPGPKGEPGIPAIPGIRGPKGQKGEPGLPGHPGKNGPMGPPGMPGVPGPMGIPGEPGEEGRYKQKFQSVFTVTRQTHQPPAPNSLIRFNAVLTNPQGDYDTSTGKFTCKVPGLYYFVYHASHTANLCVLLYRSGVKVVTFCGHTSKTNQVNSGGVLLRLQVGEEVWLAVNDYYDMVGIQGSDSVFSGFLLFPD
Method: as §1

[6] = biological target: T6, FZD6 ECD, Fc-tagged (human, UniProt O60353 19-132); test: kinetic table (called BLI in paragraph 35)
T6 construct: range 19-132; Made in Expi293 cells; single protomer species purified by size exclusion; not shown: human IgG1 Fc of the pFUSE-hIgG1-Fc2 vector (Invivogen)
T6 sequence (looked up): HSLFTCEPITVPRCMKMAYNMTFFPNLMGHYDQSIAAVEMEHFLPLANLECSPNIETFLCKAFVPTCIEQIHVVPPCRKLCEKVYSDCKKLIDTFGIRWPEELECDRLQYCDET

[7] = biological target: T7, FZD10 CRD, Fc-tagged (human, UniProt Q9ULW2 21-161); test: kinetic table (called BLI in paragraph 35)
T7 construct: domain: CRD; Bought; not shown: Fc tag of the purchased fusion
T7 sequence (looked up): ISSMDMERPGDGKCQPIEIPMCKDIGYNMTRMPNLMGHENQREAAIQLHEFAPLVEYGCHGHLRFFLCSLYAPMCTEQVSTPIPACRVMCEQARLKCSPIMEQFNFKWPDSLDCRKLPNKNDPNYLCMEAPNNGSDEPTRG

[8] = biological target: T8, FZD9 CRD, Fc-tagged (human, UniProt O00144 23-187); test: kinetic table (called BLI in paragraph 35)
T8 construct: domain: CRD; Bought; not shown: Fc tag of the purchased fusion
T8 sequence (looked up): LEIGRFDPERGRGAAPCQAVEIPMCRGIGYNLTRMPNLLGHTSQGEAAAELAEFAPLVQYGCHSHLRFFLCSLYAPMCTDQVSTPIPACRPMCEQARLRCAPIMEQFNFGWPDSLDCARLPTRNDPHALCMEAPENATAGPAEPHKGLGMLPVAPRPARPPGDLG

[9] = biological target: FcRn (UniProt P55899 24-297; P61769 21-119); test: steady-state BLI at pH 6.0, FcRn immobilised, serial dilutions (0.1-225 nM) of the FLAg in solution
Method: as §1

[10] = biological target: T1, FZD2 CRD, Fc-tagged; test: kinetic table (called BLI in paragraph 170)
[11] = biological target: T2, FZD1 CRD, Fc-tagged; test: kinetic table (called BLI in paragraph 170)
[12] = biological target: T3, FZD7 CRD, Fc-tagged; test: kinetic table (called BLI in paragraph 170)

Kd [1]: 0.039 nM
Kd [2]: < 0.01 nM
Kd [3]: 0.057 nM
binding result [4]: binds
binding result [5]: binds
binding result [6]: no binding
binding result [7]: no binding
binding result [8]: no binding
EC50 (read off the curve) [9]: ~10 nM
Kd [10]: 0.04 nM
Kd [11]: < 0.01 nM
Kd [12]: 0.06 nM
B1: F^P+P-L6^1+3 (5019-K/H-2539-2542) (bispecific antibody)
chain 1: EVQLVESGGGLVQPGGSLRLSCAASGFNIGSSSIHWVRQAPGKGLEWVASIYSAFASTSYADSVKGRFTISADTSKNTAYLQMNSLRAEDTAVYYCARYHFPFGFALDYWGQGTLVTVSSGGGGSDIQMTQSPSSLSASVGDRVTITCRASQSVSSAVAWYQQKPGKAPKLLIYSASSLYSGVPSRFSGSRSGTDFTLTISSLQPEDFATYYCQQGVYLFTFGQGTKVEIKLEDKTHTKVEPKTSDKTHTCPPCPAPELLGGPSVFLFPPKPKDTLMISRTPEVTCVVVDVSHEDPEVKFNWYVDGVEVHNAKTKPREEQYNSTYRVVSVLTVLHQDWLNGKEYKCKVSNKALPAPIEKTISKAKGQPREPMVFDLPPSREEMTKNQVSLWCMVKGFYPSDIAVEWESNGQPENNYKTTPPVLDSDGSFFLYSKLTVDKSRWQQGNVFSCSVMHEALHNHYTQKSLSLSPGKSGSETPGTSESATPESGGGEVQLVESGGGLVQPGGSLRLSCAASGFNISYSSIHWVRQAPGKGLEWVAYISSYYGYTYYADSVKGRFTISADTSKNTAYLQMNSLRAEDTAVYYCARAHYFPWAGAMDYWGQGTLVTVSSGGGGSDIQMTQSPSSLSASVGDRVTITCRASQSVSSAVAWYQQKPGKAPKLLIYSASSLYSGVPSRFSGSRSGTDFTLTISSLQPEDFATYYCQQYYWPITFGQGTKVEIK
chain 2: EVQLVESGGGLVQPGGSLRLSCAASGFNIGSSSIHWVRQAPGKGLEWVASIYSAFASTSYADSVKGRFTISADTSKNTAYLQMNSLRAEDTAVYYCARYHFPFGFALDYWGQGTLVTVSSGGGGSDIQMTQSPSSLSASVGDRVTITCRASQSVSSAVAWYQQKPGKAPKLLIYSASSLYSGVPSRFSGSRSGTDFTLTISSLQPEDFATYYCQQGVYLFTFGQGTKVEIKLEDKTHTKVEPKSSDKTHNCPPCPAPELLGGPSVFLFPPKPKDTLMISRTPEVTCVVVDVSHEDPEVKFNWYVDGVEVHNAKTKPREEQYNSTYRVVSVLTVLHQDWLNGKEYKCKVSNKALPAPIEKTISKAKGQPREPQVYTLPPIRELMTSNQVSLSCAVKGFYPSDIAVEWESNGQPENNYKTTPPVLDSDGSFFLVSKLTVDKSRWQQGNVFSCSVMHEALHNHYTQKSLSLSPGKSGSETPGTSESATPESGGGEVQLVESGGGLVQPGGSLRLSCAASGFNISSYYIHWVRQAPGKGLEWVASIYSSYGYTSYADSVKGRFTISADTSKNTAYLQMNSLRAEDTAVYYCARTVRGSKKPYFSGWAMDYWGQGTLVTVSSGGGGSDIQMTQSPSSLSASVGDRVTITCRASQSVSSAVAWYQQKPGKAPKLLIYSASSLYSGVPSRFSGSRSGTDFTLTISSLQPEDFATYYCQQYSWGPFTFGQGTKVEIK
